Measured values from US20220227861A1 (UNIVERSITY COLLEGE CARDIFF CONSULTANTS, published 2022).

Molecular target: T1, ZIP10 (SLC39A10) zinc transporter, endogenous in cells (human, UniProt Q9ULF5 26-831)
T1 construct: Endogenous ZIP10 of MCF-7 cells or of ZIP6-transfected cells
T1 sequence: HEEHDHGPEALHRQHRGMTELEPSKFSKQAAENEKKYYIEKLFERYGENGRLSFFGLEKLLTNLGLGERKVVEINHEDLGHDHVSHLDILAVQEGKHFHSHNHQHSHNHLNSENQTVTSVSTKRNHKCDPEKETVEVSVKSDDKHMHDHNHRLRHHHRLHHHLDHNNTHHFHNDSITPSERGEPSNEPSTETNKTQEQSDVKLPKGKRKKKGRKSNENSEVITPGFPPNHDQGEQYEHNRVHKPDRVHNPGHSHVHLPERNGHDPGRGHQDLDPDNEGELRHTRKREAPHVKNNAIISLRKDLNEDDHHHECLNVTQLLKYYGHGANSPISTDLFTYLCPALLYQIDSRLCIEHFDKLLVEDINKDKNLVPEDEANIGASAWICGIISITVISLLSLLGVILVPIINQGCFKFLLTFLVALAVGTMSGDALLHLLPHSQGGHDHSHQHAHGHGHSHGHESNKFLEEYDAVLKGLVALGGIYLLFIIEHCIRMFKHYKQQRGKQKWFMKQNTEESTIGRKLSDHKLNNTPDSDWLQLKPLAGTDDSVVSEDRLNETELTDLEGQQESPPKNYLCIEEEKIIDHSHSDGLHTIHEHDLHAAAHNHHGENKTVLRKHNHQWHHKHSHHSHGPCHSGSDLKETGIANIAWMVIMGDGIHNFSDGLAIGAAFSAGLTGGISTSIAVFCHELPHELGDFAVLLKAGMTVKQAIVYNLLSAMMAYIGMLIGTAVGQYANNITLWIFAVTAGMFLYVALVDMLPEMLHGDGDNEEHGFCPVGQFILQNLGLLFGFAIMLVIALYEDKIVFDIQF
Test: immunoprecipitation with V5 antibody, Western blot for ZIP10
Procedure: FIG. 2. […] [A] FACS cell cycle analysis confirms the increase in the G2/M population in nocodazole-treated cells, compared to control. […] Statistical significance is determined by Student's t test. *** p<0.001. [B] Control PLA using either our ZIP6-Y or our ZIP10 antibodies alone in nocodazole-treated MCF-7 cells produces only a few dots in mitotic cells (arrow), compared to FIG. 3D. Scale bar, 20 μm. [C] […] [D] FACS cell cycle analysis confirms the increase in the G2/M population in the non-adherent cells collected using the mitotic shake-off technique, compared to the adherent cells from the same dishes. […] Statistical significance is determined by Student's t test. *** p<0.001. [E] PLA using ZIP6-SC and pY⁷⁰⁵STAT3 antibodies together as well as individual control ZIP6-SC and […] antibodies in nocodazole-treated MCF-7 cells produces only few dots, compared to FIG. 5F.
Cells were harvested, washed with PBS, lysed for 1 hour at 4° C. with lysis buffer pH7.6 (50 mM Tris, 150 mM NaCl, 5 mM EGTA and 1% Triton X-100) with protease inhibitor cocktail for mammalian cells (Signa-Aldrich) and phosphatase inhibitors (2 mM sodium orthovanadate and 50 mM sodium fluoride). Protein was measured using Bio-Rad/Bradford dye-binding protein microassay. Western Blot results of 40 μg/lane from three separate experiments were normalised to GAPDH values. […]

B1: recombinant ZIP6 wild-type with C-terminal V5 tag (other)
chain: FPQTTEKISPNWESGINVDLAISTRQYHLQQLFYRYGENNSLSVEGFRKLLQNIGIDKIKRIHIHHDHDHHSDHEHHSDHERHSDHEHHSEHEHHSDHDHHSHHNHAASGKNKRKALCPDHDSDSSGKDPRNSQGKGAHRPEHASGRRNVKDSVSASEVTSTVYNTVSEGTHFLETIETPRPGKLFPKDVSSSTPPSVTSKSRVSRLAGRKTNESVSEPRKGFMYSRNTNENPQECFNASKLLTSHGMGIQVPLNATEFNYLCPAIINQIDARSCLIHTSEKKAEIPPKTYSLQIAWVGGFIAISIISFLSLLGVILVPLMNRVFFKFLLSFLVALAVGTLSGDAFLHLLPHSHASHHHSHSHEEPAMEMKRGPLFSHLSSQNIEESAYFDSTWKGLTALGGLYFMFLVEHVLTLIKQFKDKKKKNQKKPENDDDVEIKKQLSKYESQLSTNEEKVDTDDRTEGYLRADSQEPSHFDSQQPAVLEEEEVMIAHAHPQEVYNEYVPRGCKNKCHSHFHDTLGQSDDLIHHHHDYHHILHHHHHQNHHPHSHSQRYSREELKDAGVATLAWMVIMGDGLHNFSDGLAIGAAFTEGLSSGLSTSVAVFCHELPHELGDFAVLLKAGMTVKQAVLYNALSAMLAYLGMATGIFIGHYAENVSMWIFALTAGLFMYVALVDMVPEMLHNDASDHGCSRWGYFFLQNAGMLLGFGIMLLISIFEHKIVFRINF
notes: Expressed by transfection and immunoprecipitated from cell lysate with V5 antibody; also called ZIP6 wild-type (WT); ZIP6/LIV-1/SLC39A6 in pcDNA3.1/V5-His-TOPO; not shown: C-terminal V5 tag from vector pcDNA3.1/V5-His-TOPO
binding result: binds
